Measured values as given in patent US20250376538A1.
Where a chain is given by its changes, count along the chain named. Values belong to the molecule of their own block, whether it stands above or below them.

What was measured:
[1] = molecular target: plasma-derived coagulation Factor IXa (human) (UniProt P00740); experiment: FXa generation assay; FIXa stimulation by the one-armed antibody at eight concentrations, fitted with the quadratic binding equation
[2] = molecular target: plasma-derived coagulation Factor IXa (human) (UniProt P00740); experiment: cell-based or functional assay

Chain of UniProt P00740 (P00740 47-191, chain 1 of 2): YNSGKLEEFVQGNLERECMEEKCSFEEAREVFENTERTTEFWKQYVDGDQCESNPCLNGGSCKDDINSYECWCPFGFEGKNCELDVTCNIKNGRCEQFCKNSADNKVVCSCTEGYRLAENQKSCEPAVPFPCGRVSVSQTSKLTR
Chain of UniProt P00740 (P00740 227-461, chain 2 of 2): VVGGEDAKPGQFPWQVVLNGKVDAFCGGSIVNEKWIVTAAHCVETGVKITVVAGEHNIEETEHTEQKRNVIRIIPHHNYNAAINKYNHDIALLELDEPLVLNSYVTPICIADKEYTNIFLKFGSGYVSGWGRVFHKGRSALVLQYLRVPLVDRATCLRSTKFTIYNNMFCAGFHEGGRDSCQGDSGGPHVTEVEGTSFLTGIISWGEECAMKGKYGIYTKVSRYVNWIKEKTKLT

B1: monovalent one-armed (OA) antibody of anti-FIX(a) mAb1 (antibody, V domains shown, part only)
VH: EVQLVESGGGLVQPGRSLRLSCAASGFTFHDYAMHWVRQVPGKGLEWVSGISWRGDIGGYVKSVKGRFTISRDNAKNSLYLQMNSLRAEDTALYYCVKSYGSGSFYNAFDSWGQGTLVTVSS
VL: DIQMTQSPSTLSASVGDRVTITCRASQSISSWLAWYQQKPGKAPKFLIYKGSKADRGTPSRFSGSGSGTEFTLTISSLQPDDFATYYCLEYESYIRTFGQGTKVEIK
modifications: constant regions and truncated heavy chain not given
Stimulation Index (FXa generation assay; 1599 nM OA antibody) [2]: 9840 fold

B3: monovalent one-armed (OA) antibody of anti-FIX(a) mAb3 (antibody, V domains shown, part only)
VH: B1 VH
VL: B1 VL with A54T
modifications: constant regions and truncated heavy chain not given
Stimulation Index (FXa generation assay; 749 nM OA antibody) [2]: 8650 fold

B4: monovalent one-armed (OA) antibody of anti-FIX(a) mAb4 (antibody, V domains shown, part only)
VH: B1 VH
VL: B1 VL with G51S, S52E, A54L
modifications: constant regions and truncated heavy chain not given
Stimulation Index (FXa generation assay; 1217 nM OA antibody) [2]: 10500 fold

B6: monovalent one-armed (OA) antibody of anti-FIX(a) mAb2 (antibody, V domains shown, part only)
VH: B1 VH
VL: B1 VL with A54Q, E92S
modifications: constant regions and truncated heavy chain not given
Stimulation Index (FXa generation assay; 5640 nM OA antibody) [2]: 14200 fold

B7: monovalent one-armed (OA) antibody of anti-FIX(a) mAb5 (antibody, V domains shown, part only)
VH: B1 VH
VL: B1 VL with R18E, S52E, A54L, E92S
modifications: constant regions and truncated heavy chain not given
Stimulation Index (FXa generation assay; 1463 nM OA antibody) [2]: 11200 fold

Results, then the molecule that gave them:

Kd [1]: 1100 nM | Stimulation Index (FXa generation assay; estimated at full FIXa saturation) [2]: 1370 fold
Molecule: monovalent one-armed (OA) version of the anti-FIXa antibody of emicizumab (ACE910)

Stimulation Index (FXa generation assay; 1276 nM OA antibody) [2]: 10100 fold
B2: monovalent one-armed (OA) antibody of anti-FIX(a) mAb8 (antibody, V domains shown, part only)
VH: B1 VH
VL: B1 VL with G51A, S52E, A54L
modifications: constant regions and truncated heavy chain not given

Stimulation Index (FXa generation assay; 3547 nM OA antibody) [2]: 13500 fold
B5: monovalent one-armed (OA) antibody of anti-FIX(a) mAb6 (antibody, V domains shown, part only)
VH: B1 VH
VL: B1 VL with R18E, A54L, E92S
modifications: constant regions and truncated heavy chain not given

Stimulation Index (FXa generation assay; 851 nM OA antibody) [2]: 8730 fold
B8: monovalent one-armed (OA) antibody of anti-FIX(a) mAb7 (antibody, V domains shown, part only)
VH: B1 VH
VL: B1 VL with R18E, G51A, S52E, A54L
modifications: constant regions and truncated heavy chain not given
